# B1: LINE1-mini (parent)
# chain: GGCAGAGCUCAACACAGCGUGGCAAAGUGGCUGUGGCUAGACUGCC
# Variants of: B1
# Assay: self-cleavage, relative activity (ratio to wild type); higher = more cleavage; in vitro, sequencing; the parent is a self-cleaving ribozyme
row,Variant,self-cleavage
1,GGAAGAGCUCAACACGGCGUGGCAAAGUGGCUGUGGCUAGACUGCC [C3A A16G],0.22
2,GGAAGAGCUCAACACCGCGUGGCAAAGUGGCUGUGGCUAGACUGCC [C3A A16C],0.12
3,GGAAGAGCUCACCACAGCGUGGCAAAGUGGCUGUGGCUAGACUGCC [C3A A12C],0.07
4,GGAAGAGCUCAUCACAGCGUGGCAAAGUGGCUGUGGCUAGACUGCC [C3A A12U],0.57
5,GGAAGAGCUCAGCACAGCGUGGCAAAGUGGCUGUGGCUAGACUGCC [C3A A12G],0.12
6,GGAAGAGCUCAACACAGCGUGGCAACGUGGCUGUGGCUAGACUGCC [C3A A26C],0.44
7,GGAAGAGCUCAACACAGCGUGGCAAGGUGGCUGUGGCUAGACUGCC [C3A A26G],0.67
8,GGAAGAGCUCAACACAGCGUGGCAAUGUGGCUGUGGCUAGACUGCC [C3A A26U],0.49
9,GGAAGAGCUCAACACAACGUGGCAAAGUGGCUGUGGCUAGACUGCC [C3A G17A],0.16
10,GGAAGAGCUCAACACACCGUGGCAAAGUGGCUGUGGCUAGACUGCC [C3A G17C],0.31
11,GGAAGAGCUCAACACAUCGUGGCAAAGUGGCUGUGGCUAGACUGCC [C3A G17U],0.2
12,GGAUGAGCUCAACACAGCGUGGCAAAGUGGCUGUGGCUAGACUGCC [C3A A4U],0.38
13,GGAGGAGCUCAACACAGCGUGGCAAAGUGGCUGUGGCUAGACUGCC [C3A A4G],0.17
14,GGACGAGCUCAACACAGCGUGGCAAAGUGGCUGUGGCUAGACUGCC [C3A A4C],0.25
15,GGAAGAGCUCAACACAGCGUGGCAAACUGGCUGUGGCUAGACUGCC [C3A G27C],0.24
16,GGAAGAGCUCAACACAGCGUGGCAAAAUGGCUGUGGCUAGACUGCC [C3A G27A],0.31
17,GGAAGAGCUCAACACAGCGUGGCAAAUUGGCUGUGGCUAGACUGCC [C3A G27U],0.62
18,GUCAGAGCUCAACACAGCGUGGCAAAGUGGCUGUGGCGAGACUGCC [G2U U38G],0.02
19,GUCAGAGCUCAACACAGCGUGGCAAAGUGGCUGUGGCAAGACUGCC [G2U U38A],0.05

row,Variant,self-cleavage
1,GUCAGAGCUCAACACAGCGUGGCAAAGUGGCUGUGGCCAGACUGCC [G2U U38C],0.05
2,GGAAGAGCUCAACACAGCGUGGCAAAGUGGCUGUGGCUAGACUGCA [C3A C46A],0.4
3,GGAAGAGCUCAACACAGCGUGGCAAAGUGGCUGUGGCUAGACUGCG [C3A C46G],0.29
4,GGAAGAGCUCAACACAGCGUGGCAAAGUGGCUGUGGCUAGACUGCU [C3A C46U],0.41
5,GGAAGAGCUCAACACAGCGUGGCCAAGUGGCUGUGGCUAGACUGCC [C3A A24C],0.27
6,GGAAGAGCUCAACACAGCGUGGCGAAGUGGCUGUGGCUAGACUGCC [C3A A24G],0.78
7,GGAAGAGCUCAACACAGCGUGGCUAAGUGGCUGUGGCUAGACUGCC [C3A A24U],0.51
8,GGAAGGGCUCAACACAGCGUGGCAAAGUGGCUGUGGCUAGACUGCC [C3A A6G],0.2
9,GGAAGCGCUCAACACAGCGUGGCAAAGUGGCUGUGGCUAGACUGCC [C3A A6C],0.38
10,GGAAGUGCUCAACACAGCGUGGCAAAGUGGCUGUGGCUAGACUGCC [C3A A6U],0.76
11,GUCAGAGCUCAACACAGCGUGGCAAAGGGGCUGUGGCUAGACUGCC [G2U U28G],0.04
12,GUCAGAGCUCAACACAGCGUGGCAAAGAGGCUGUGGCUAGACUGCC [G2U U28A],0.07
13,GUCAGAGCUCAACACAGCGUGGCAAAGCGGCUGUGGCUAGACUGCC [G2U U28C],0.06
14,GUCAGAGCUCAACACAGCGUGGCAAAGUGGCCGUGGCUAGACUGCC [G2U U32C],0.03
15,GUCAGAGCUCAACACAGCGUGGCAAAGUGGCGGUGGCUAGACUGCC [G2U U32G],0.03
16,GUCAGAGCUCAACACAGCGUGGCAAAGUGGCAGUGGCUAGACUGCC [G2U U32A],0.03
17,GGAAAAGCUCAACACAGCGUGGCAAAGUGGCUGUGGCUAGACUGCC [C3A G5A],0.5
18,GGAACAGCUCAACACAGCGUGGCAAAGUGGCUGUGGCUAGACUGCC [C3A G5C],0.31
19,GGAAUAGCUCAACACAGCGUGGCAAAGUGGCUGUGGCUAGACUGCC [C3A G5U],0.28

row,Variant,self-cleavage
1,GGAAGAGGUCAACACAGCGUGGCAAAGUGGCUGUGGCUAGACUGCC [C3A C8G],0.3
2,GGAAGAGAUCAACACAGCGUGGCAAAGUGGCUGUGGCUAGACUGCC [C3A C8A],0.85
3,GGAAGAGUUCAACACAGCGUGGCAAAGUGGCUGUGGCUAGACUGCC [C3A C8U],0.69
4,GUCAGAGCCCAACACAGCGUGGCAAAGUGGCUGUGGCUAGACUGCC [G2U U9C],0.01
5,GUCAGAGCGCAACACAGCGUGGCAAAGUGGCUGUGGCUAGACUGCC [G2U U9G],0.06
6,GUCAGAGCACAACACAGCGUGGCAAAGUGGCUGUGGCUAGACUGCC [G2U U9A],0.06
7,GGAAGAGCUCAACACAGUGUGGCAAAGUGGCUGUGGCUAGACUGCC [C3A C18U],0.49
8,GGAAGAGCUCAACACAGGGUGGCAAAGUGGCUGUGGCUAGACUGCC [C3A C18G],0.2
9,GGAAGAGCUCAACACAGAGUGGCAAAGUGGCUGUGGCUAGACUGCC [C3A C18A],0.18
10,GUCAGAGCUCAACACAGCGUGGCAAAGUGGCUGAGGCUAGACUGCC [G2U U34A],0.04
11,GUCAGAGCUCAACACAGCGUGGCAAAGUGGCUGGGGCUAGACUGCC [G2U U34G],0.03
12,GUCAGAGCUCAACACAGCGUGGCAAAGUGGCUGCGGCUAGACUGCC [G2U U34C],0.04
13,GGAAGAGCUCAACAUAGCGUGGCAAAGUGGCUGUGGCUAGACUGCC [C3A C15U],0.41
14,GGAAGAGCUCAACAGAGCGUGGCAAAGUGGCUGUGGCUAGACUGCC [C3A C15G],0.09
15,GGAAGAGCUCAACAAAGCGUGGCAAAGUGGCUGUGGCUAGACUGCC [C3A C15A],0.24
16,GGAAGAGCUCAACACAGCGUGGCAAAGUGGUUGUGGCUAGACUGCC [C3A C31U],0.11
17,GGAAGAGCUCAACACAGCGUGGCAAAGUGGGUGUGGCUAGACUGCC [C3A C31G],0.13
18,GGAAGAGCUCAACACAGCGUGGCAAAGUGGAUGUGGCUAGACUGCC [C3A C31A],0.16

# From the RNAGym collection of RNA variant scans (doi:10.7554/elife.90254)
